These results are taken from the supplement of paper PMC12042874.

± gives the uncertainty stated by the source.

The data set can be described thus: amyloid nucleation score (Sup35N fusion, yeast selection) (log enrichment); library NNK3; higher = more nucleation; inactive = no reads after selection. The essentials: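 After 24 hours of induction with 100 μM copper sulfate, psi-negative yeast expressing peptides of 20 random codons fused to Sup35N were grown for 7 days at 30°C on medium lacking adenine and uracil. Input and output plasmid inserts were sequenced with Illumina, and sequences with under 100 input reads were discarded. Scores for nucleation are the DiMSum log enrichment of output over input reads, centred on the mode score of non-aggregating sequences.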
For CRVSGMDICLWSMMCDSVGS, the amyloid nucleation score result is “inactive”.

As to KRDLGTNAFTMNRRCYQDTL, the amyloid nucleation score entry is “inactive”.

With SMFCMVSFMMW, the amyloid nucleation score is -0.071 ± 0.22.

Regarding CNPLFTYNKPSVDKSV, the amyloid nucleation score result was “inactive”.

Turning to GRSRLQQVIHLAFTIKSVNG, the amyloid nucleation score entry is “inactive”.

In the case of TFLCSENQAAMWGIRTGSLL, the amyloid nucleation score result was “inactive”.

Turning to LCFNR, the amyloid nucleation score entry was “inactive”.

For the substance GKCVGEPPAQSEKTWRNGSL, the amyloid nucleation score entry was “inactive”.

As for ISFSWHF, the amyloid nucleation score was 0.789 ± 0.17.

In the case of MVLPLSYKQSCFQLCKFLDN, the amyloid nucleation score result is “inactive”.

Consider FEWFQCIYA, for which the amyloid nucleation score entry is “inactive”.

Turning to RVTVPDVDCGKASWSPGKVC, the amyloid nucleation score result was “inactive”.

YHVMV: the amyloid nucleation score result is “inactive”.

On to FCFYRKKGVVGCILFYACFR, for which the amyloid nucleation score result is “inactive”.

In the case of FTMSMYKGFRRCA, the amyloid nucleation score entry is “inactive”.

For TLSDQFDMISWVSK, the amyloid nucleation score result is “inactive”.

As to SEASQRLLYTMVWTAHTQVM, the amyloid nucleation score entry was “inactive”.

In the case of GVIWSMWIASL, the amyloid nucleation score result is “inactive”.

For the substance PTTCSNFSAYWNVCDPHNIS, the amyloid nucleation score result is “inactive”.

With ACDTVEDGTSGGHCWVCGDG, the amyloid nucleation score result is “inactive”.

On to IINFIVCMMSVQNMCCALFG, for which the amyloid nucleation score came to 1.39 ± 0.1.

NHLGVRWVLSMNMTFPHHNL came in with an amyloid nucleation score of 1.29 ± 0.089.

On to MSEKASSEVKINRDAGLGAF, for which the amyloid nucleation score entry is “inactive”.

For FGFCWLFNLCYLGNVVYAVM, the amyloid nucleation score entry was “inactive”.

With KYVYFMSVFCEVCSRAHRVV, the amyloid nucleation score came to 1.24 ± 0.1.

In the case of HYMLGSLSPVWLFFL, the amyloid nucleation score result was “inactive”.

Take GLMERNDMSEYSSAG: the amyloid nucleation score entry was “inactive”.

Take LLLDNITLGLWEFIRYRCGW: the amyloid nucleation score result was “inactive”.

For SLMEGYSFSVPRSASRCSSQ, the amyloid nucleation score result is “inactive”.

Regarding TYSIISENIVVFFNRM, the amyloid nucleation score was 2.58 ± 0.059.

Turning to LTYTYGVGVMIGIITHRLVC, the amyloid nucleation score entry is “inactive”.

In the case of LIFLTMVSLLFGDQRRSGVQ, the amyloid nucleation score came out at 0.221 ± 0.54.

In the case of STNSRFFSAYCSVVGMRRHA, the amyloid nucleation score entry is “inactive”.

Substance STVNVCYVSMGNWERLTDVR had an amyloid nucleation score of 0.446 ± 0.26.

As to HCSCRNWSLMLGRFFVFVTC, the amyloid nucleation score result is “inactive”.

In the case of LIRRSWSYCVLVSCTDGSHS, the amyloid nucleation score result was “inactive”.

Substance ISTLSVSLS showed an amyloid nucleation score of -0.258 ± 0.36.

For the substance NDRIYCGGDYPTNH, the amyloid nucleation score entry is “inactive”.

As for LFLVIYYVFMYVA, the amyloid nucleation score result was “inactive”.

On to WKFAGHEALWFLKIIEMLR, for which the amyloid nucleation score entry was “inactive”.

VFLGCYSSYIVIWDARAPG returned an amyloid nucleation score of 1.96 ± 0.071.

RSPEDFSGTCHAGRCSWVHG: the amyloid nucleation score is -0.044 ± 0.39.

In the case of LCTSADYWSHKNRGRAYSRR, the amyloid nucleation score result is “inactive”.

RIKFNHTAFNWFQIF came in with an amyloid nucleation score of 1.69 ± 0.091.

On to INSVSRGCINHFASVEGPCI, for which the amyloid nucleation score result was “inactive”.

With YVSHVSISVSSMLCYGGQSW, the amyloid nucleation score turned out to be 1.93 ± 0.096.

For PIVRRKSPPRHYENELRGYS, the amyloid nucleation score entry was “inactive”.

In turn, KDCASGSRSTAIFAFCSGAF had an amyloid nucleation score of 0.281 ± 0.27.

For the substance RCNALSLWIYNEKSWNNTWY, the amyloid nucleation score was 1.74 ± 0.084.

In the case of ARSARGLGQRYLLYMYCLWL, the amyloid nucleation score entry is “inactive”.

In turn, CFCFLIM returned an amyloid nucleation score of 1.05 ± 0.21.

On to LHPSRLDGT, for which the amyloid nucleation score amounted to 0.411 ± 0.25.

Turning to VYRYFASKIIKGIFSRCCTF, the amyloid nucleation score entry is “inactive”.

On to ATRTNYCACPLLMARWMSVL, for which the amyloid nucleation score result is “inactive”.

For SQKFVYLMSPSWPGGQLEAR, the amyloid nucleation score entry is “inactive”.

Regarding LDGTGCDGPLARKNCGRNAV, the amyloid nucleation score entry is “inactive”.

In the case of NISMVTSEDYMRDLLIFSTG, the amyloid nucleation score result was “inactive”.

Turning to SVFDKGESGRRYGGEV, the amyloid nucleation score entry was “inactive”.

With VHNYHERALKKHEGTTVRNF, the amyloid nucleation score worked out at 0.154 ± 0.4.

ILNYLRENCQKVTGRGA returned an amyloid nucleation score of -0.679 ± 0.96.

With SMDVLRFDQYRWLYRVFNLH, the amyloid nucleation score entry is “inactive”.

Consider GYSTRYLSV, for which the amyloid nucleation score entry was “inactive”.

For the substance HTTIQETFVRIPRLCRWHRR, the amyloid nucleation score entry is “inactive”.

In the case of VSMRPMTSSRLKRFKYRYLY, the amyloid nucleation score entry was “inactive”.

Take NSDFLSTVGYEGLLHTQGCA: the amyloid nucleation score result is “inactive”.

As for PPSISSPFALRVFTFVLRY, the amyloid nucleation score entry was “inactive”.

For the substance LDAYLWNNCMYVYHLEPYSW, the amyloid nucleation score entry was “inactive”.

As to HFLFSNQNIRSLNIVFNSRV, the amyloid nucleation score amounted to 2.2 ± 0.073.

As to KSMSLKTFCGWGETQYVFFV, the amyloid nucleation score result is “inactive”.

As to FSIIKFYWAEYWARRGEIVR, the amyloid nucleation score result was “inactive”.

RKCCGVLSLSASLHDRDDGC: the amyloid nucleation score entry was “inactive”.

Regarding RCEFIFS, the amyloid nucleation score entry is “inactive”.

Substance WHVEIIVHNMSFSILKNVGR gave an amyloid nucleation score of 1.65 ± 0.1.

CGYKEVGVPASRRMNS: the amyloid nucleation score result was “inactive”.

As for TYTVYLRRYAYYECTFRQFL, the amyloid nucleation score result is “inactive”.

With LGWGHACMKFVDHCVRSSRS, the amyloid nucleation score entry is “inactive”.

Turning to QVILKNMGPNIVSYGLG, the amyloid nucleation score result is “inactive”.

Substance EHCSGNFRLNLSCDEVHIWM gave an amyloid nucleation score of 2.99 ± 0.063.

Consider TEDHH, for which the amyloid nucleation score result is “inactive”.

As to RYDTNSRVRIIVSNF, the amyloid nucleation score entry is “inactive”.

Turning to RDWLIMSLGVVLVWFLRYQY, the amyloid nucleation score result is “inactive”.

Turning to FSPRKSLASLGITVVVDHCI, the amyloid nucleation score is -0.057 ± 0.81.

For the substance HLLTAVILITIGVNRVTWWG, the amyloid nucleation score entry is “inactive”.

Consider YIMCCGV, for which the amyloid nucleation score came out at 1.61 ± 0.073.

Turning to CQWANY, the amyloid nucleation score was -0.508 ± 1.

The substance ESRSRLRNGTLFNCVIN returned an amyloid nucleation score of -0.081 ± 0.5.

Take PLGLAILFSSPSTFLYFNFD: the amyloid nucleation score result was “inactive”.

As for LHCSVSSQTELVPTENRGGW, the amyloid nucleation score result was “inactive”.

The substance LVDVDVHR returned an amyloid nucleation score of -0.994 ± 2.5.

The substance FCNCNMFYDLCLCAHGMPSA registered an amyloid nucleation score of 2.99 ± 0.067.

Regarding LDNVKDVRYWIVCTQWWNRV, the amyloid nucleation score entry was “inactive”.

Turning to DHQLSGGDGVGSMYSTEGKL, the amyloid nucleation score result is “inactive”.

For the substance DCVNWTWHTTDNLVVTYSYN, the amyloid nucleation score entry is “inactive”.

For KYANILSFTPFNQQSI, the amyloid nucleation score entry is “inactive”.

Take IFFSIVSWKDAGCSEAINCQ: the amyloid nucleation score result is “inactive”.

With TCECCLMMVEFRALCHRWEL, the amyloid nucleation score result was “inactive”.
